Experimental data from the supplement of paper PMC9170038.

Tested on: MS2 coat protein
Test: apparent KD of MS2 coat protein; designed switch direction (-1 OFF switch, 1 ON switch): -1; higher = weaker reporter binding
Summary of the method: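 The reported apparent KD is a per-design median over clusters, from curve fits of normalised cluster fluorescence. Protein titrations used SNAP-549-labelled MS2 coat protein, doubled from 0.7 or 1.5 nM to 3 µM, in Tris-HCl pH 7.5 buffer with KCl, MgCl2, BSA, DTT, tRNA and Tween-20, with no input, 200 uM small-molecule ligand, or an oligonucleotide input. The RNA switches were transcribed on Illumina chips by stalled E. coli RNA polymerase.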

[1] = Eterna round: R95, input ligand: FMN 200 uM
[2] = Eterna round: R95, input ligand: microRNA oligo, concentration not stated
[3] = Eterna round: R95, input ligand: none
[4] = input ligand: microRNA oligo, concentration not stated

Sequence | apparent KD of MS2 coat protein [2] | apparent KD of MS2 coat protein (input ligand: FMN 200 uM) | apparent KD of MS2 coat protein (input ligand: none) | further results
AAUAAAGGAGGAUAUACAUGAGGAUCACCCAUGUGAAUAAAAUAAAUAAAAUGAUAAAGUAGAAGGCCUAAUAA [JMF's solution 3] (puzzle: Exclusion 3) | 33.3 nM |  |  | apparent KD of MS2 coat protein [1]: 33.5 nM; apparent KD of MS2 coat protein [3]: 49.7 nM
AAUAACAAUGUGAGGAUAUCUAGAGCCUCGGCUCUAGAGAAGGCACAUGAGGAUCACCCAUGUCUCAAUAACAA [BmEx4/2-E7] (Eterna round: R97, puzzle: Brourd's mod of Exclusion 4) |  | 502 nM | 52.7 nM | 
AAUAACAGAGGAUAUACUAUUUUAUGUAUUUAUUAUUUUAAACAUGAGGAUCACCCAUGUAGAAGGCUGAAUAA [JMF 11] (puzzle: Exclusion 2) | 19.8 nM |  |  | 
AAUAACAGAGGAUAUACUGUUUUAUGUGUUUGUUAUUUUAAACAUGAGGAUCACCCAUGUAGAAGGCUGAGUAA [JMF 30] (puzzle: Exclusion 2) | 25 nM |  |  | 
AAUAACAGAGGAUAUGCGAAUAAAUAAAACUUUUUUUUUUAACAUGAGGAUCACCCAUGUAGAAGGCUGAUAUU [Ex2 #21] (Eterna round: R97, puzzle: Exclusion 2) |  | 35.6 nM | 37 nM | 
AAUAAGUUAGGAUAUACAUGAGGAUCACCCAUGUCCCACCCGUUACCUAUGACCAUAUGUAGAAGGAGCAAUAA [Exy#2] (Eterna round: R97, puzzle: Exclusion 3) |  | 62.1 nM | 32.7 nM | 
AAUAAUAAGGAGGAUAUCCUAACCGAAAGGUUAGGAGAAGGCCUAACAUGAGGAUCACCCAUGUUCCUCAAUAA [Mat - Exclusion 6 - Eli Mod - D57] (puzzle: Exclusion 6) | 236 nM |  |  | apparent KD of MS2 coat protein [1]: 318 nM; apparent KD of MS2 coat protein [3]: 118 nM
AAUAAUCGAGGAUAUACUAAAAUAUGAAUAAAAUAAAUAAAACAUGAGGAUCACCCAUGUAGAAGGCGAAAUAA [JMF's Not so obvious solution 1] (puzzle: Exclusion 2) | 24.1 nM |  |  | apparent KD of MS2 coat protein [1]: 20.8 nM; apparent KD of MS2 coat protein [3]: 29.5 nM
AAUAAUGAUAAGGAUAUUACUAGCGAUAGCUAGUGAGAAGGUAUCACAUGAGGAUCACCCAUGUGUUCCAAUAA [Ex6/6-B4] (Eterna round: R97, puzzle: Exclusion 6) |  | 70.1 nM | 17.3 nM | 
AAUAAUGGAGGAUAUACAUGAGGAUCACCCAUGUGAAUAAAAUAAAUAAAAUGAUAAAGUAGAAGGCCAAAUAA [JMF's solution 2] (puzzle: Exclusion 3) | 39.9 nM |  |  | apparent KD of MS2 coat protein [1]: 42.7 nM; apparent KD of MS2 coat protein [3]: 53.6 nM
AAUACAAGCUAUUGAUCCCACAUGAGGAUCACCCAUGUAUAUGCCCGUGACACGUGCAUGACGAUAGCUCGUCUUAU [Sensor-V1 #60] (Eterna round: R97, puzzle: Sensor, turn-off variant 1) |  | 85.8 nM | 102 nM | 
AAUACCCGAGGAUAUCUAAUUCGGCACAUGAGGAUCACCCAUGUGAUCUGACCUAGCCGAGGAGAAGGCGGGUCAG [Errizabe] (puzzle: Exclusion 5) | 12.9 nM |  |  | apparent KD of MS2 coat protein [1]: 25.8 nM; apparent KD of MS2 coat protein [3]: 12.1 nM
AAUACCGGUCUGCCUAAAGACAUGAGGAUCACCCAUGUCUGAUUCUCAACAGGCCUUUUGCUUCUCUUAACUACACA [Vetilage] (puzzle: Sensor v3, turn-off variant 1) | 23.1 nM |  |  | apparent KD of MS2 coat protein [1]: 13.9 nM; apparent KD of MS2 coat protein [3]: 12.6 nM
AAUCCACAUGAGGAUCACCCAUGUCAGGAUAUCGCGCGCGCGGUUUCGGUCGCGCGCGCGAGAAGGGACGGCUG (puzzle: Exclusion 1) | 22.1 nM |  |  | 
AAUCUUCUAGGAUAUAUAUGGUAGCGGGAGAACCCAGUCACACAUGAGGAUCACCCAUGUAGAAGGAGAAUAGG [Eternabot (L1) Solution 87] (Eterna round: R97, puzzle: Exclusion 2) |  | 107 nM | 99.7 nM | 
AAUGAUGAUGUGAGGAUAUACAUAGUUAGAAAGUAGUAGAAGGCACAUGAGGAUCACCCAUGUAGAUGUAAGGU [JR_BME4_Sub001] (puzzle: Brourd's mod of Exclusion 4) | 26.3 nM |  |  | apparent KD of MS2 coat protein [1]: 52.5 nM; apparent KD of MS2 coat protein [3]: 24.6 nM
AAUGCCGUAGGAUAUAUAUGGCAGAUCGCACGUCCUGAAAGACAUGAGGAUCACCCAUGUAGAAGGGCGGAAAC [Ceisisan] (puzzle: Exclusion 2) | 14.1 nM |  |  | 
AAUGCGAGUGUUAGGAUAUACAAGGAUCCAUAUUUGUAGAAGGAACAUGAGGAUCACCCAUGUAAGGGAAUAAA [Enususxebe] (puzzle: Brourd's mod of Exclusion 4) | 59.5 nM |  |  | apparent KD of MS2 coat protein [1]: 166 nM; apparent KD of MS2 coat protein [3]: 65.7 nM
AAUGGUAAAGUCAGGAUAUACGUAAGUCGUUCUAGGUAGAAGGGACAUGAGGAUCACCCAUGUAUGAUAGUAAA [Ex4 #33] (Eterna round: R97, puzzle: Brourd's mod of Exclusion 4) |  | 25.4 nM | 44.6 nM | 
AAUUAACAUGUAGGAUAUCUGCACGUUUAGUGCAGAGAAGGACAUGAGGAUCACCCAUGUAUAGCGACUUCGGUCGCAAUAAUU [ENG1/2-B2] (Eterna round: R96, puzzle: Exclusion NG 1) |  | 377 nM | 131 nM | apparent KD of MS2 coat protein [4]: 105 nM
AAUUAGUGAGGAUAUUUGAACAGUGGCAGUAGCCAGUGCAUGAAGAAGGCACAUGAGGAUCACCCAUGUUAUAA [EX4 #58] (Eterna round: R97, puzzle: Exclusion 4) |  | 70.5 nM | 39.8 nM | 
AAUUAUUAUCGAGGAUAUCGUAUUGAAAUAAUAUGAGAAGGCGGGAUAAACAUGAGGAUCACCCAUGUGAGCCUGAUGCUUGUG [Ex NG1 #38] (Eterna round: R96, puzzle: Exclusion NG 1) |  |  |  | apparent KD of MS2 coat protein [4]: 14.9 nM
AAUUCACAAGCGAGAUCCCACAUGAGGAUCACCCAUGUGCUCGUCUUAUAAGGUACUGUGACGAGAGUCACGGUACC [Mat - Sensor, turn-off var - Eli Mod - D88] (Eterna round: R97, puzzle: Sensor, turn-off variant 1) |  | 15.7 nM | 16 nM | 
AAUUCACAUGAGGAUCACCCAUGUCAGGAUAUGGUUUCGCGGGUUUCGGUGCGUGAGGCCAGAAGGGACAGCUA (puzzle: Exclusion 1) | 49.2 nM |  |  | 
AAUUCGAGAGGAUAUACAGGUGAUAUGUAGAAGCCUCGAGCACAUGAGGAUCACCCAUGUAGAAGGCUCAUAUA [EX2 A.11] (Eterna round: R97, puzzle: Exclusion 2) |  | 262 nM | 29.6 nM | 
AAUUUACAUGAGGAUCACCCAUGUCAGGAUAUGGUUUUAUUUUUUUCUUUUUUUGAUUCCAGAAGGGACAGUUA (puzzle: Exclusion 1) | 91.5 nM |  |  | 
AAUUUACAUGAGGAUCACCCAUGUGAGGAUAUGAUACUAUGUACUUCGGUACAUAGUAUCAGAAGGCAUGUGGA [Ex1-3: 91] (puzzle: Exclusion 1) | 115 nM |  |  | 
AAUUUACAUGAGGAUCACCCAUGUGAGGAUAUGGAUUCGCUGGCCGUAGCCAGUGGAUCCAGAAGGCGCGUGAU [JL-ex1-4.28] (Eterna round: R97, puzzle: Exclusion 1) |  | 182 nM | 98.2 nM | 
